The source of these data is patent publication US20140140998A1 (LUDWIG INSTITUTE FOR CANCER RESEARCH, published 2014).

Test [1] deals with T1, tumor necrosis factor alpha converting enzyme (TACE), endogenous (human, UniProt P78536 215-824).
T1 construct: whole, on cells; also called ADAM17
Kind of test: co-immunofluorescence (co-localisation) in PC-3U cells.
Description: Panel e: PC-3U cells were treated with or without TGFβ for 30 min as indicated. […] Their colocalization is shown by the yellow color, as shown in merged images. The images on the left are enlarged from the areas enclosed in white boxes in the images to the right. DAPI staining was performed to detect cell nuclei (blue).

The target in test [2] is Presenilin 1 (PS1), endogenous (human, UniProt P49768 1-467). Put plainly: co-immunoprecipitation from transfected PC-3U cells.

Substitutions are numbered along the chain they refer to. In names and notes the source's numbering stands.

T1 sequence (P78536 215-824): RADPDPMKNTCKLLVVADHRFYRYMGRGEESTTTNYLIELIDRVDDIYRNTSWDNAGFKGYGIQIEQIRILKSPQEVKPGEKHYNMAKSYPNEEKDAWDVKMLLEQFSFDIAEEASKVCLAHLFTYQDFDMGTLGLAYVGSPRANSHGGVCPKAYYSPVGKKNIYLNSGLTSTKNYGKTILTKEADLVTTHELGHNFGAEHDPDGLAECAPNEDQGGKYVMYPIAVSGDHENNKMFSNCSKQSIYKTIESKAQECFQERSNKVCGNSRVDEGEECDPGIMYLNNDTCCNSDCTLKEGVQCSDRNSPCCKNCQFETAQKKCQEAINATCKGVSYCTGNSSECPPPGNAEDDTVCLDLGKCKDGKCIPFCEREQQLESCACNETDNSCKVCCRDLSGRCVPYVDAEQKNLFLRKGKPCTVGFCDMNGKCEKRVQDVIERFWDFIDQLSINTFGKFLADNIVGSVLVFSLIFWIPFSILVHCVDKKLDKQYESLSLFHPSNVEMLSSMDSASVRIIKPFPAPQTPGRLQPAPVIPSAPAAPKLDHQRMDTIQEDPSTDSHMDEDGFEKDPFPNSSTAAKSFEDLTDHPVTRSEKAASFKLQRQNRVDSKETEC

B1: type I receptor of transforming growth factor beta (TβRI), endogenous, full length (receptor)
chain: LQCFCHLCTKDNFTCVTDGLCFVSVTETTDKVIHNSMCIAEIDLIPRDRPFVCAPSSKTGSVTTTYCCNQDHCNKIELPTTVKSSPGLGPVELAAVIAGPVCFVCISLMLMVYICHNRTVIHHRVPNEEDPSLDRPFISEGTTLKDLIYDMTTSGSGSGLPLLVQRTIARTIVLQESIGKGRFGEVWRGKWRGEEVAVKIFSSREERSWFREAEIYQTVMLRHENILGFIAADNKDNGTWTQLWLVSDYHEHGSLFDYLNRYTVTVEGMIKLALSTASGLAHLHMEIVGTQGKPAIAHRDLKSKNILVKKNGTCCIADLGLAVRHDSATDTIDIAPNHRVGTKRYMAPEVLDDSINMKHFESFKRADIYAMGLVFWEIARRCSIGGIHEDYQLPYYDLVPSDPSVEEMRKVVCEQKLRPNIPNRWQSCEALRVMAKIMRECWYANGAARLTALRIKKTLSQLSQQEGIKM
notes: Endogenous receptor of human PC-3U prostate cancer cells, studied in cell lysates, cell fractions and fixed cells; also called TβRI-FL; ALK5
As for B1, the binding result in test [1] is “binds”.

B2: HA-tagged caE161A TβRI mutant (HA-ca E161A) (receptor)
chain: B1 chain with E128A, T171D
notes: Expressed by transient transfection in PC-3U cells; also called HA-E161A; E161A mutant; not shown: HA tag fused to the C-terminus
For B2, in test [2], the binding result is given as “no binding”.
